Numbering of substitutions follows the chain as printed. Numbers in names are those of the source.
What was measured:
[1] = target: T1, vascular endothelial growth factor (UniProt P15692-4 27-191, limits assumed, biotin label (Example 5), site not stated); test: BioVeris ECL competition with a labeled competitor; legend: +++ = IC50 about 2-10 µM
T1 construct: also called VEGF; VegF
Method: (§1) The resulting vectors were used to transform B. subtilis BG6006 host cells. Cultures were grown in 500 ml of MBD medium and the BBI species were purified essentially as described above and by Vogtentanz et al., 2007 (Protein Expr Purif 55:40-52 [2007]). BioVeris binding assays were performed essentially as outlined in Example 5 and by the manufacturer. Binding of the modified variant BBIs to their respective target proteins was measured using a BioVeris® binding assay, which is a competition assay that determines the binding of the modified variant BBIs to its target protein (e.g. VEGF, FGF5, TGFβ and TNFα) in the presence or absence of a labeled competitor. The competitor can be a labeled monoclonal antibody raised against the target protein or a labeled native receptor of the target protein. The electrochemiluminesent binding assays were performed essentially as described in Example 5. The apparent IC50s were determined from binding data by determining the concentration of the BBI species needed to reduce the BioVeris signal by one half. BBI scaffolds without the target binding peptide in the chymotrypsin inhibitory loop were used as negative controls.

[2] = target: T2, Transforming growth factor β1 (UniProt P01137 279-390); test: BioVeris ECL competition with a labeled competitor; legend: ++ = IC50 about 10-50 µM
T2 construct: also called TGFβ1; TGFβ
T2 sequence (P01137 279-390 limits assumed): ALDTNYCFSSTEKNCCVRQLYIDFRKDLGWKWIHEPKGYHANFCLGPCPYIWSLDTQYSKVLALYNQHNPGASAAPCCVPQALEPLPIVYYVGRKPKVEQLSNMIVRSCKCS
Method: as §1

[3] = target: T3, fibroblast growth factor 5 (UniProt P12034 21-268, limits assumed); test: as above
T3 construct: also called FGF-5; FGF5
T3 sequence (looked up): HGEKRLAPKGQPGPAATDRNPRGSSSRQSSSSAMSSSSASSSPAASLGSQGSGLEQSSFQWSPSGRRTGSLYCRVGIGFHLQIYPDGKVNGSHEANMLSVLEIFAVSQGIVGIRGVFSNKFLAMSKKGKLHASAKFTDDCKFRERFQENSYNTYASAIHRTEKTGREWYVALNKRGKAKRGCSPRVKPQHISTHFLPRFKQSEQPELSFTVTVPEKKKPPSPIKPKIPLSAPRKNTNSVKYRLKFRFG
Method: as §1

[4] = target: T2, Transforming growth factor β1; test: BioVeris ECL competition; negative control for TGFβ binding
[5] = target: T3, fibroblast growth factor 5; test: BioVeris ECL competition; wild-type negative control for FGF-5 binding
[6] = target: T1, vascular endothelial growth factor; test: BioVeris ECL competition; wild-type negative control for VEGF binding
Tumor necrosis factor α [7] = target: T4, Tumor necrosis factor α (UniProt P01375 77-233); test: BioVeris ECL competition with a labeled competitor; legend: ++ = IC50 about 10-50 µM
T4 construct: also called TNFα; TNF
T4 sequence (P01375 77-233 limits assumed): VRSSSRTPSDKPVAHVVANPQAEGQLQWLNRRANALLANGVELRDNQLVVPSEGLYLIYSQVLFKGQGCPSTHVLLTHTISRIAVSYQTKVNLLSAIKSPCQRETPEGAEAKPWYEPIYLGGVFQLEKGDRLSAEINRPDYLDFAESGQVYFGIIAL
Method: as §1

[8] = target: T1, vascular endothelial growth factor; test: as above
Method: as §1

Tumor necrosis factor α [9] = target: T4, Tumor necrosis factor α; test: BioVeris ECL competition with a labeled competitor; legend: + = IC50 about 50-250 µM
Method: as §1

Tumor necrosis factor α [10] = target: T4, Tumor necrosis factor α; test: BioVeris ECL competition; negative control for TNFα binding

T1 sequence (P15692 other isoform, or with tags, fused parts or gaps limits assumed): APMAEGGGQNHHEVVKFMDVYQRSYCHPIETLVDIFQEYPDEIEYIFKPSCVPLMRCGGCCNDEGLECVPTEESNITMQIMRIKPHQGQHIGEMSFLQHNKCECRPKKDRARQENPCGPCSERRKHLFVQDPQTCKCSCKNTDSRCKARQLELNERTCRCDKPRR

B1: BBdb-AV (designed binder)
chain: DPSESSKPCCDQCACTKSIPPQCRCTDVRLNSCHSACSSCACYNLYGWTCVCVDMKDFCYEPCK
notes: also called BBIdb-AV
Q: With B1 as the binder, how does the IC50 [1] read?
A: 2 to 10 µM

B2: PEN3-Q-BBIt-TGFβ1 (designed binder)
chain: DPDDESSKPCCDQCICTKSNPPQCRCSDMRPNSCHSACKSCACPENINVLPCTCADITDFCYEPCKPSE
notes: also called BBIt-PEN3-Q-A13I-L29P-F50T-V52A
Q: B2 was tested. Which IC50 [2] did it give?
A: 10 to 50 µM

B3: BBtc-AV (designed binder)
chain: DPSSKWEACCDRCACTKSIPPQCHCADIRLNSCHSACESCACYNLYGWTCRCFDITDFCYKPCSG
notes: also called BBItc-AV
Q: For B3, which IC50 [1] is on record?
A: 2 to 10 µM

B4: BBIt-AV (designed binder)
chain: DDESSKPCCDQCACTKSNPPQCRCSDMRLNSCHSACKSCACYNLYGWTCFCVDITDFCYEPCKPSE
notes: BBI-AV without its 5 C-terminal amino acids; also called truncated BBI-AV; unmodified BBIt-AV
Q: B4 was tested. Which IC50 [1] did it give?
A: 2 to 10 µM

B5: BBIt-AV-A13I-L29P-A40K-F50T-V52A (designed binder)
chain: DPDDESSKPCCDQCICTKSNPPQCRCSDMRPNSCHSACKSCKCYNLYGWTCTCADITDFCYEPCKPSE
notes: also called TA5; quintuple variant
Q: Which IC50 [1] does the source give for B5 here?
A: 2 to 10 µM

B6: MM007-Q-BBIt-FGF-5 (designed binder)
chain: B5 chain with K42A, Y44R, N45T, L46Q, Y47P, G48Y, W49P, T50L
notes: also called BBIt-MM007-Q-A13I-L29P-F50T-V52A
Q: How did the IC50 [3] turn out when B6 was run?
A: 10 to 50 µM

B7: MM021W-Q-BBIt-TGFβ1 (designed binder)
chain: B5 chain with K42A, Y44K, N45H, L46N, Y47V, G48D, T50L
notes: also called MM0212-Q-BBIt-TGF; BBIt-MM021W-Q-A13I-L29P-F50T-V52A
Q: Which IC50 [2] does the source give for B7 here?
A: 10 to 50 µM

B8: WTQ-Q-BBIt-TGFβ1 (designed binder)
chain: B5 chain with K42A, Y44W, N45T, L46Q, Y47H, G48I, W49H, T50N
notes: also called BBIt-WTQ-Q-A13I-L29P-F50T-V52A
Q: For B8, which IC50 [2] is on record?
A: 10 to 50 µM

B9: FGFps2-Q-BBIt-FGF-5 (designed binder)
chain: B5 chain with K42A, Y44T, N45W, L46I, Y47D, G48S, W49T, T50P
notes: also called BBIt-FGFps2-Q-A13I-L29P-F50T-V52A
Q: B9 was tested. Which IC50 [3] did it give?
A: 10 to 50 µM

Q: What about the IC50 [4] of the same binder?
A: > 250 µM

B10: BBIt-AV-A13I-S25R-M27A-L29P-S31A-A40H-F50K-V52T (designed binder)
chain: B5 chain with S27R, M29A, S33A, K42H, T52K, A54T
notes: the entry carries an N-terminal DP; also called KT8
Q: With B10 as the binder, how does the IC50 [1] read?
A: 2 to 10 µM

B11: BBIt-AV-A13I-A40K-F50T-V52A (designed binder)
chain: B5 chain with P31L
notes: the entry as printed carries an N-terminal DP from the linker
Q: With B11 as the binder, how does the IC50 [1] read?
A: 2 to 10 µM

B12: BBIt-AV-A13I-S25K-M27A-L29R-S31E-A40K-F50Q-V52Q (designed binder)
chain: B5 chain with S27K, M29A, P31R, S33E, T52Q, A54Q
notes: the entry carries an N-terminal DP; also called QQ8
Q: Which IC50 [1] does the source give for B12 here?
A: 2 to 10 µM

B13: BBIt-AV-A13I-S25K-M27A-L29R-S31A-A40H-F50R-V52L (designed binder)
chain: B5 chain with S27K, M29A, P31R, S33A, K42H, T52R, A54L
notes: the entry carries an N-terminal DP; also called RL8
Q: For B13, which IC50 [1] is on record?
A: 2 to 10 µM

B14: wild-type soybean Bowman-Birk protease inhibitor (other)
chain: DDESSKPCCDQCACTKSNPPQCRCSDMRLNSCHSACKSCICALSYPAQCFCVDITDFCYEPCKPSEDDKEN
notes: Negative control with the native chymotrypsin loop ALSYPAQ; also called sBBI; BBI
Q: For B14, which IC50 [5] is on record?
A: > 250 µM

Q: What about the IC50 [6] of the same binder?
A: > 250 µM

B15: BBIt-TNFα-T1-A13I-S25R-M27A-L29P-S31A-F50K-V52T (designed binder)
chain: DPDDESSKPCCDQCICTKSNPPQCRCRDARPNACHSACKSCACRYWQDIPCKCTDITDFCYEPCKPSE
notes: also called BBIt-TNF-T1
Q: For B15, which IC50 (Tumor necrosis factor α [7]) is on record?
A: 10 to 50 µM

B16: BBIt-VEGF-V5-A13I-S25R-M27A-L29P-S31A-F50K-V52T (designed binder)
chain: B15 chain with R44K, Y45P, W46S, Q47S, D48A, I49S, P50S
notes: also called BBIt-AV-V5
Q: With B16 as the binder, how does the IC50 [8] read?
A: 10 to 50 µM

B17: BBIt-TNFα-T3-A13I-S25R-M27A-L29P-S31A-F50K-V52T (designed binder)
chain: B15 chain with R44D, Y45M, W46I, Q47M, D48V, I49S, P50I
notes: also called BBIt-TNF-T3
Q: With B17 as the binder, how does the IC50 (Tumor necrosis factor α [9]) read?
A: 50 to 250 µM

B18: BBIt-TNFα-T2-A13I-S25R-M27A-L29P-S31A-F50K-V52T (designed binder)
chain: B15 chain with R44A, Y45P, W46E, Q47P, D48I, I49L, P50A
notes: also called BBIt-TNF-T2
Q: How did the IC50 (Tumor necrosis factor α [9]) turn out when B18 was run?
A: 50 to 250 µM

B19: BBIt-VEGF-V3-A13I-S25R-M27A-L29P-S31A-F50K-V52T (designed binder)
chain: B15 chain with Y45P, W46T, Q47G, D48H, I49S, P50L
notes: also called BBIt-AV-V3
Q: B19 was tested. Which IC50 [8] did it give?
A: 10 to 50 µM

B20: BBIt-VEGF-V1-A13I-S25R-M27A-L29P-S31A-F50K-V52T (designed binder)
chain: B15 chain with R44S, Y45K, W46H, Q47S, D48Q, P50T
notes: also called BBIt-AV-V1
Q: For B20, which IC50 [8] is on record?
A: 10 to 50 µM

Q: What about the IC50 (Tumor necrosis factor α [10]) of the same binder?
A: > 250 µM

B21: BBIt-VEGF-V4-A13I-S25R-M27A-L29P-S31A-F50K-V52T (designed binder)
chain: B15 chain with R44K, Y45H, W46S, Q47A, D48K, I49A, P50E
notes: also called BBIt-AV-V4
Q: B21 was tested. Which IC50 [1] did it give?
A: 2 to 10 µM

B22: BBIt-VEGF-V2-A13I-S25R-M27A-L29P-S31A-F50K-V52T (designed binder)
chain: B15 chain with R44K, Y45T, W46N, Q47P, D48S, I49G, P50S
notes: also called BBIt-AV-V2
Q: B22 was tested. Which IC50 [1] did it give?
A: 2 to 10 µM

B23: BBIt-VEGF-V6-A13I-S25R-M27A-L29P-S31A-F50K-V52T (designed binder)
chain: B15 chain with R44P, Y45V, W46T, Q47K, D48R, I49V, P50H
notes: also called BBIt-AV-V6
Q: With B23 as the binder, how does the IC50 [1] read?
A: 2 to 10 µM

B24: BBIt-VEGKD-A13I-S25K-L29P-V52K (designed binder)
chain: DPDDESSKPCCDQCICTKSNPPQCRCKDMRPNSCHSACKSCICKYDLYWWCFCKDITDFCYEPCKPSE
notes: also called VegKD-Q
Q: For B24, which IC50 [1] is on record?
A: 2 to 10 µM

Reference: patent publication US20100093028A1 (DANISCO US, published 2010)
